According to PMC5225439, “Nucleoplasmin-like domain of FKBP39 from Drosophila melanogaster forms a tetramer with partly disordered tentacle-like C-terminal segments” (Scientific Reports, 2017):

How the values were obtained:
[1] = target: the molecule itself; assay: SEC-MALS; 100 μl of 1 mg/ml FKBP39 on Superdex 200 Increase 10/300 in buffer C (50 mM Na2HPO4, 150 mM NaCl, pH 7.0), 0.5 ml/min
[2] = target: the molecule itself; assay: AUC; sedimentation velocity, 20 °C, buffer C (50 mM Na2HPO4, 150 mM NaCl, pH 7.0), 0.2 and 0.5 mg/ml protein, 40,000 rpm, absorbance at 280 nm, continuous c(s) distribution in SEDFIT

B1: 39-kDa FK506-binding protein (FKBP39) from Drosophila melanogaster, full-length, with C-terminal 8x His-tag (natural protein, UniProt P54397 1-357, looked up)
chain: MSMFWGLNMKPERKYSQTIIKSFHISGVALDKGQEAKLYLAAEKQEYIVATVTKAIPQVALDLNFSKGDRIMFYTAGDASVSLLGYLHDIDSEDDEDDDQMTIENLLNSKAIKNSKKSEDDEDENESGEEDEEDTDDDSQIIEEYESFLENGEEEDDDDVDEDNEESGEEDEQDSDDSEAEEEQPKAKVAKLSPGASAKKSGKEQNGVAKKEEAKQQQKKKEKPEAKKEQPKAKEPAKQQPASKDPRTITGGVKIVDQVVGKGEEAKQGKRVSVYYIGRLQSNNKTFDSLLKGKPFKFALGGGEVIKGWDVGVAGMKVGGKRVITCPPHMAYGARGAPPKIGPNSTLVFEVELKAVH
notes: N-terminal NPL 1-86, central charged region 87-256, C-terminal FKBD 257-357; Cloned BamHI/HindIII into the modified vector pQE80L-XH; The forward primer puts TCG (Ser) before the FKBP39 ATG, so a few vector-derived residues precede the natural start; also called full-length FKBP39; recombinant FKBP39; source: E. coli BL21(DE3)pLysS, purified (Co2+-TALON resin, Superdex 200 SEC)
For B1, the “stoichiometry N” value [1] was 2 and the “stoichiometry N” value [2] was 4.
